B1: truncated aggrecanase-2 from amino acid #1 through amino acid #567 (protein)
chain: SISRARQVELLLVADASMARLYGRGLQHYLLTLASIANRLYSHASIENHIRLAVVKVVVLGDKDKSLEVSKNAATTLKNFCKWQHQHNQLGDDHEEHYDAAILFTREDLCGHHSCDTLGMADVGTICSPERSCAVIEDDGLHAAFTVAHEIGHLLGLSHDDSKFCEETFGSTEDKRLMSSILTSIDASKPWSKCTSATITEFLDDGHGNCLLDLPRKQILGPEELPGQTYDATQQCNLTFGPEYSVCPGMDVCARLWCAVVRQGQMVCLTKKLPAVEGTPCGKGRICLQGKCVDKTKKKYYSTSSH
B2: ADAMTS-5 active site mutant (E411-Q411) (protein)
chain: SISRARQVELLLVADASMARLYGRGLQHYLLTLASIANRLYSHASIENHIRLAVVKVVVLGDKDKSLEVSKNAATTLKNFCKWQHQHNQLGDDHEEHYDAAILFTREDLCGHHSCDTLGMADVGTICSPERSCAVIEDDGLHAAFTVAHQIGHLLGLSHDDSKFCEETFGSTEDKRLMSSILTSIDASKPWSKCTSATITEFLDDGHGNCLLDLPRKQILGPEELPGQTYDATQQCNLTFGPEYSVCPGMDVCARLWCAVVRQGQMVCLTKKLPAVEGTPCGKGRICLQGKCVDKTKKKYYSTSSHGNWGSWGSWGQCSRSCGGGVQFAYRHCNNPAPRNNGRYCTGKRAIYRSCSLMPCPPNGKSFRHEQCEAKNGYQSDAKGVKTFVEWVPKYAGVLPADVCKLTCRAKGTGYYVVFSPKVTDGTECRPYSNSVCVRGKCVRTGCDGIIGSKLQYDKCGVCGGDNSSCTKIVGTFNKKSKGYTDVVRIPEGATHIKVRQFKAKDQTRFTAYLALKKKNGEYLINGKYMISTSETIIDINGTVMNYSGWSHRDDFLHGMGYSATKEILIVQILATDPTKPLDVRYSFFVPKKSTPKVNSVTSHGSNKVGSHTSQPQWVTGPWLACSRTCDTGWHTRTVQCQDGNRKLAKGCPLSQRPSAFKQCLLKKC
B3: truncated aggrecanase-2 from amino acid #1 through amino acid #628 (protein)
chain: SISRARQVELLLVADASMARLYGRGLQHYLLTLASIANRLYSHASIENHIRLAVVKVVVLGDKDKSLEVSKNAATTLKNFCKWQHQHNQLGDDHEEHYDAAILFTREDLCGHHSCDTLGMADVGTICSPERSCAVIEDDGLHAAFTVAHEIGHLLGLSHDDSKFCEETFGSTEDKRLMSSILTSIDASKPWSKCTSATITEFLDDGHGNCLLDLPRKQILGPEELPGQTYDATQQCNLTFGPEYSVCPGMDVCARLWCAVVRQGQMVCLTKKLPAVEGTPCGKGRICLQGKCVDKTKKKYYSTSSHGNWGSWGSWGQCSRSCGGGVQFAYRHCNNPAPRNNGRYCTGKRAIYRSCSLMPCPPNGKSF

Molecular target: chondroitinase-treated bovine aggrecan, P13608
Sequence (P13608 17-2364): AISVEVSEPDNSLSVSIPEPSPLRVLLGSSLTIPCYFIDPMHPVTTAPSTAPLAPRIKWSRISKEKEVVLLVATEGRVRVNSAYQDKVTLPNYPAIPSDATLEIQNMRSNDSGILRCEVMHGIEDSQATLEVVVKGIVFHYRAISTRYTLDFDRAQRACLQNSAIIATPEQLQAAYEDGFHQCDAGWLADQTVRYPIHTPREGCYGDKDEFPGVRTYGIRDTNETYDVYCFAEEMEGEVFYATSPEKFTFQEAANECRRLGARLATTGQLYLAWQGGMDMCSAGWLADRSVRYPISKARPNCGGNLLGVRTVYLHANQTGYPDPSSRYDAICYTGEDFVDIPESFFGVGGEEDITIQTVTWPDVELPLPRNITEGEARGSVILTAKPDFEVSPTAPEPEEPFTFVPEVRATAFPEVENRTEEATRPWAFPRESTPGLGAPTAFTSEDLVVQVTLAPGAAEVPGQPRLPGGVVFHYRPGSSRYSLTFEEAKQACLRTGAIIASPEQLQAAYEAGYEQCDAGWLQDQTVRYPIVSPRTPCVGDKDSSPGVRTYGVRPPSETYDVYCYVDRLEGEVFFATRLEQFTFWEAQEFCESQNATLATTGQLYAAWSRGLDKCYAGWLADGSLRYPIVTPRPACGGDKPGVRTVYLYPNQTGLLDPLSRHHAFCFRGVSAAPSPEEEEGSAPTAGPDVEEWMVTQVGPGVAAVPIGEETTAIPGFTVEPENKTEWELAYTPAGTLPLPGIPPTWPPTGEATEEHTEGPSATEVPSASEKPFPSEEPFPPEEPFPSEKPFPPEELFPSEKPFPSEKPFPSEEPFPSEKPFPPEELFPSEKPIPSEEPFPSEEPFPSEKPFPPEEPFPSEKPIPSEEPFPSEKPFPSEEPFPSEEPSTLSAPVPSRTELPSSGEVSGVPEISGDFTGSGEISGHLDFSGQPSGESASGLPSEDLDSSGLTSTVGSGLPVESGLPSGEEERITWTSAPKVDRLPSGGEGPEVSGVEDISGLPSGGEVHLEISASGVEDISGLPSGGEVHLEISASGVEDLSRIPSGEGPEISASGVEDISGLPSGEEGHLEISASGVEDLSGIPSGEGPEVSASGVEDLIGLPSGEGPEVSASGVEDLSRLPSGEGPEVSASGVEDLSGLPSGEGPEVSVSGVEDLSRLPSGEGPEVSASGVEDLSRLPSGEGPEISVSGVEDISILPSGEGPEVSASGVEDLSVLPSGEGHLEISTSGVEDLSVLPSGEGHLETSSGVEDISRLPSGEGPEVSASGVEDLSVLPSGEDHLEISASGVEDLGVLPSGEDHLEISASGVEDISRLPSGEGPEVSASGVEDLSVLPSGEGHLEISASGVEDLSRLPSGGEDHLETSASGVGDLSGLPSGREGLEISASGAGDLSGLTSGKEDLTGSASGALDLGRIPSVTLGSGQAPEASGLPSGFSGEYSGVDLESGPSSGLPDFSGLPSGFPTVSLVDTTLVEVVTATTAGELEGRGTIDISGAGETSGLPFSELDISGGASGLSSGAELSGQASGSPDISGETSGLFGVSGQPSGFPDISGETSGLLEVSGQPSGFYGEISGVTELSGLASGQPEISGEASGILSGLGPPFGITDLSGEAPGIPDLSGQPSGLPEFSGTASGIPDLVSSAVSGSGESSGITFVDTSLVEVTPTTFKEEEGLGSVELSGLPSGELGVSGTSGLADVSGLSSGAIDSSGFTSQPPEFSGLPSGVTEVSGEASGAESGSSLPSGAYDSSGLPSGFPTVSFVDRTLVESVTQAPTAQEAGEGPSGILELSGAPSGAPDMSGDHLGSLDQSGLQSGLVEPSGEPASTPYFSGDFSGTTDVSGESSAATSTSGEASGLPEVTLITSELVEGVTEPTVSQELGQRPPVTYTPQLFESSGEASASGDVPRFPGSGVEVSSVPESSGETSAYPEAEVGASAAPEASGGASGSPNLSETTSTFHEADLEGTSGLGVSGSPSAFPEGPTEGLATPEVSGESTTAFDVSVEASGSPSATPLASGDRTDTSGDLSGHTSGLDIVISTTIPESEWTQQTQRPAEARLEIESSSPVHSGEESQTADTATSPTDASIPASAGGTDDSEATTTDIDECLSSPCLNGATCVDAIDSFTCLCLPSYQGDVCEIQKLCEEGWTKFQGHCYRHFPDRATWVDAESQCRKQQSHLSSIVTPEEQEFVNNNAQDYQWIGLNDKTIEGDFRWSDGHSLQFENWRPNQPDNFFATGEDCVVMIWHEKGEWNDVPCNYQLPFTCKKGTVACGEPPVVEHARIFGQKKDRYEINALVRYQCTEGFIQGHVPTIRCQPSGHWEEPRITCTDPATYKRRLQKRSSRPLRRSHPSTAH

Row | Protein | % aggrecan cleavage (3B3 ELISA assay) | aggrecanase activity (ELISA)
1 | B1 | truncated aggrecanases of the invention having one or both TSP domains deleted are biologically active | –
2 | B2 | – | lacked aggrecanase activity as shown by ELISA (FIG. 16)
3 | B3 | truncated aggrecanases of the invention having one or both TSP domains deleted are biologically active | –
